Patent publication US20230042694A1 (SUZHOU CUREMED BIOMEDICAL TECHNOLOGY, published 2023)

Target: KRAS protein (UniProt P01116 1-186, limits assumed)
Assay: cell-based or functional assay

| Percentage of KRAS protein level (Western Blot, H358 cells, 6 hours after transfection; protein level of EV29-K19-VHKC as control) | Binder |
| --- | --- |
| 45.9% | recombinant polypeptide FBW7-K19 (N-FBW7 (second polypeptide)-linker peptide-K19 (first polypeptide)-C) (other) MGGLDYKDDDDKASCVPRSGLILSCICLYCGVLLPVLLPNLPFLTCLSMSTLESVTYLPEKGLYCQRLPSSRTHGGTESLKGKNTENMGFYGTLKMIFYKMKRKLDHGSEVRSFSLGKKPCKVSEYTSTTGLVPCSATPTTFGDLRAANGQGQQRRRITSVQPPTGLQEWLKMFQSWSGPEKLLALDELIDSCEPTQVKHMMQVIEPQFQRDFISLLPKELALYVLSFLEPKDLLQAAQTCRYWRILAEDNLLWREKCKEEGIDEPLHIKRRKVIKPGFIHSPWKSAYIRQHRIDTNWRRGELKSPSGSGSGSGMDLGKKLLEAARAGQDDEVRILMANGADVNASDRGGGTPLHLAAAGGHLEIVEVLLKRGADVSAADLHGQSPLHLAAMVGHLEIVEVLLKYGADVNAKDTMGATPLHLAARSGHLEIVEELLKNGADMNAQDKFGKTTFDISTDNGNEDLAEILQKL |
| 28.3% | recombinant polypeptide K19-CHIP (N-K19 (first polypeptide)-linker peptide-CHIP (second polypeptide)-C) (other) MDLGKKLLEAARAGQDDEVRILMANGADVNASDRGGGTPLHLAAAGGHLEIVEVLLKRGADVSAADLHGQSPLHLAAMVGHLEIVEVLLKYGADVNAKDTMGATPLHLAARSGHLEIVEELLKNGADMNAQDKFGKTTFDISTDNGNEDLAEILQKLSGSGSGSGRLNFGDDIPSALRIAKKKRWNSIEERRIHQESELHSYLSRLIAAERERELEECQRNHEGDEDDSHVRAQQACIEAKHDKYMADMDELFSQVDEKRKKRDIPDYLCGKISFELMREPCITPSGITYDRKDIEEHLQRVGHFDPVTRSPLTQEQLIPNLAMKEVIDAFISENGWVEDYGS |
| 39.8% | recombinant polypeptide K19-ASB1 (N-K19 (first polypeptide)-linker peptide-ASB1 (second polypeptide)-C) (other) MDLGKKLLEAARAGQDDEVRILMANGADVNASDRGGGTPLHLAAAGGHLEIVEVLLKRGADVSAADLHGQSPLHLAAMVGHLEIVEVLLKYGADVNAKDTMGATPLHLAARSGHLEIVEELLKNGADMNAQDKFGKTTFDISTDNGNEDLAEILQKLSGSGSGSGVKWESLGPESRGRRKVDPEALQVFKEARSVPRTLLCLCRVAVRRALGKHRLHLIPSLPLPDPIKKFLLHEGS |
| 52.6% | recombinant polypeptide DDB2-K19 (N-DDB2 (second polypeptide)-linker peptide-K19 (first polypeptide)-C) (other) MGGLDYKDDDDKASAPKKRPETQKTSEIVLRPRNKRSRSPLELEPEAKKLCAKGSGPSRRCDSDCLWVGLAGPQILPPCRSIVRTLHQHKLGRASWPSVQQGLQQSFLHTLDSYRILQKAAPFDRRASGSGSGSGMDLGKKLLEAARAGQDDEVRILMANGADVNASDRGGGTPLHLAAAGGHLEIVEVLLKRGADVSAADLHGQSPLHLAAMVGHLEIVEVLLKYGADVNAKDTMGATPLHLAARSGHLEIVEELLKNGADMNAQDKFGKTTFDISTDNGNEDLAEILQKL |
| 22.4% | recombinant polypeptide K19-SPOP (N-K19 (first polypeptide)-linker peptide-SPOP (second polypeptide)-C) (other) MDLGKKLLEAARAGQDDEVRILMANGADVNASDRGGGTPLHLAAAGGHLEIVEVLLKRGADVSAADLHGQSPLHLAAMVGHLEIVEVLLKYGADVNAKDTMGATPLHLAARSGHLEIVEELLKNGADMNAQDKFGKTTFDISTDNGNEDLAEILQKLGSGSGSGSVNISGQNTMNMVKVPECRLADELGGLWENSRFTDCCLCVAGQEFQAHKAILAARSPVFSAMFEHEMEESKKNRVEINDVEPEVFKEMMCFIYTGKAPNLDKMADDLLAAADKYALERLKVMCEDALCSNLSVENAAEILILADLHSADQLKTQAVDFINYHASDVLETSGWKSMVVSHPHLVAEAYRSLASAQCPFLGPPRKRLKQS |
| 28.2% | recombinant polypeptide CRBN-K19 (N-CRBN (second polypeptide)-linker peptide-K19 (first polypeptide)-C) (other) MGGLDYKDDDDKASAGEGDQQDAAHNMGNHLPLLPAESEEEDEMEVEDQDSKEAKKPNIINFDTSLPTSHTYLGADMEEFHGRTLHDDDSCQVIPVLPQVMMILIPGQTLPLQLFHPQEVSMVRNLIQKDRTFAVLAYSNVQEREAQFGTTAEIYAYREEQDFGIEIVKVKAIGRQRFKVLELRTQSDGIQQAKVQILPECVLPSTMSAVQLESLNKCQIFPSKPVSREDQCSYKWWQKYQKRKFHCANLTSWPRWLYSLYDAETLMDRIKKQLREWDENLKDDSLPSNPIDFSYRVAACLPIDDVLRIQLLKIGSAIQRLRCELDIMNKCTSSGSGSGSGMDLGKKLLEAARAGQDDEVRILMANGADVNASDRGGGTPLHLAAAGGHLEIVEVLLKRGADVSAADLHGQSPLHLAAMVGHLEIVEVLLKYGADVNAKDTMGATPLHLAARSGHLEIVEELLKNGADMNAQDKFGKTTFDISTDNGNEDLAEILQKL |
| 20.4% | recombinant polypeptide SKP2-K19 (N-SKP2 (second polypeptide)-linker peptide-K19 (first polypeptide)-C) (other) MGGLDYKDDDDKASHRKHLQEIPDLSSNVATSFTWGWDSSKTSELLSGMGVSALEKEEPDSENIPQELLSNLGHPESPPRKRLKSKGSDKDFVIVRRPKLNRENFPGVSWDSLPDELLLGIFSCLCLPELLKVSGVCKRWYRLASDESLWQTLDLTGKNLSGSGSGSGMDLGKKLLEAARAGQDDEVRILMANGADVNASDRGGGTPLHLAAAGGHLEIVEVLLKRGADVSAADLHGQSPLHLAAMVGHLEIVEVLLKYGADVNAKDTMGATPLHLAARSGHLEIVEELLKNGADMNAQDKFGKTTFDISTDNGNEDLAEILQKL |
| 19.3% | recombinant polypeptide βTrCP-K19 (N-βTrCP (second polypeptide)-linker peptide-K19 (first polypeptide)-C) (other) MGGLDYKDDDDKASDPAEAVLQEKALKFMNSSEREDCNNGEPPRKIIPEKNSLRQTYNSCARLCLNQETVCLASTAMKTENCVAKTKLANGTSSMIVPKQRKLSASYEKEKELCVKYFEQWSESDQVEFVEHLISQMCHYQHGHINSYLKPMLQRDFITALPARGLDHIAENILSYLDAKSLCAAELVCKEWYRVTSDGMLWKKLIERMVRTDSLWRGLAERRGWGQYLFKNKPPDGNAPPNSFYRALYPKIIQDIETIESNWRCGRHSLQRIHCRSGSGSGSGMDLGKKLLEAARAGQDDEVRILMANGADVNASDRGGGTPLHLAAAGGHLEIVEVLLKRGADVSAADLHGQSPLHLAAMVGHLEIVEVLLKYGADVNAKDTMGATPLHLAARSGHLEIVEELLKNGADMNAQDKFGKTTFDISTDNGNEDLAEILQKL |
| 47.3% | recombinant polypeptide K19-SOCS2 (N-K19 (first polypeptide)-linker peptide-SOCS2 (second polypeptide)-C) (other) MDLGKKLLEAARAGQDDEVRILMANGADVNASDRGGGTPLHLAAAGGHLEIVEVLLKRGADVSAADLHGQSPLHLAAMVGHLEIVEVLLKYGADVNAKDTMGATPLHLAARSGHLEIVEELLKNGADMNAQDKFGKTTFDISTDNGNEDLAEILQKLSGSGSGSGPRNGTVHLYLTKPLYTSAPSLQHLCRLTINKCTGAIWGLPLPTRLKDYLEEYKFQVGS |
